Data on eight substances can be found in publication PMC12990809.

Common to all, as to test: pulldown
Data set [1] addresses T1, AT1G76460 (Arabidopsis thaliana) (UniProt F4I2E4).
T1 sequence: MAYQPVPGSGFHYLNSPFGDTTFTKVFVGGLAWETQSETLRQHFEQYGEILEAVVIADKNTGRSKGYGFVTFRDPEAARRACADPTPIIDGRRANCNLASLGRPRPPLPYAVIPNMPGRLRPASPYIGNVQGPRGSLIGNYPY
Particulars: 20 nM protein, 1.5 uM RNA pool; 20 mM HEPES pH 7.8, 70 mM KCl, 10 mM NaCl, 10% glycerol, 2 mM DTT, 0.1 ug/uL BSA; 30 min, 4 C (protocol of this paper; not …); cited from earlier work.

The target of data set [2] is T2, CBG13971 (Caenorhabditis briggsae) (UniProt A8XIX4).
T2 sequence: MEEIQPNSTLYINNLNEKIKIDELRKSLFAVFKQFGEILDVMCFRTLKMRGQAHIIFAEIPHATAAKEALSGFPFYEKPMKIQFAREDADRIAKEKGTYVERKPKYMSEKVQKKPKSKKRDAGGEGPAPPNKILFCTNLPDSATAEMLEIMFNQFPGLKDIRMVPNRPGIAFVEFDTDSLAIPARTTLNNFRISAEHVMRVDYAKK
Particulars: 20 nM protein, 1.5 uM RNA pool; 20 mM HEPES pH 7.8, 70 mM KCl, 10 mM NaCl, 10% glycerol, 2 mM DTT, 0.1 ug/uL BSA; 30 min, 4 C.

The target in data set [3] is T3, Y69A2AR.32 L314S (Caenorhabditis elegans) (UniProt H2L0S1).
T3 sequence: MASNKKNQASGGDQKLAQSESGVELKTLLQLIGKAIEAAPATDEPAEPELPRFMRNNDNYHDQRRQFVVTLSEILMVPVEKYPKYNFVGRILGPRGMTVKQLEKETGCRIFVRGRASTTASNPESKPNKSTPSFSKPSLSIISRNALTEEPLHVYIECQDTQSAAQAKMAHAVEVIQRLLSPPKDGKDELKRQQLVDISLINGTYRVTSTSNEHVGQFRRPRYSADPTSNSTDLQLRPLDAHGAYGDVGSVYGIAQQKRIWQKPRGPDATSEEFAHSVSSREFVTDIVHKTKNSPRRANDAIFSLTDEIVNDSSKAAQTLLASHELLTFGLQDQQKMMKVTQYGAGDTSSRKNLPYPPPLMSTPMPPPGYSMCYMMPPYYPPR
The conditions noted are these: 20 nM protein, 1.5 uM RNA pool; 20 mM HEPES pH 7.8, 70 mM KCl, 10 mM NaCl, 10% glycerol, 2 mM DTT, 0.1 ug/uL BSA; 30 min, 4 C.

A further data set deals with T4, HNRNPR (Gallus gallus) (UniProt A0A8V0YGA1).
T4 sequence: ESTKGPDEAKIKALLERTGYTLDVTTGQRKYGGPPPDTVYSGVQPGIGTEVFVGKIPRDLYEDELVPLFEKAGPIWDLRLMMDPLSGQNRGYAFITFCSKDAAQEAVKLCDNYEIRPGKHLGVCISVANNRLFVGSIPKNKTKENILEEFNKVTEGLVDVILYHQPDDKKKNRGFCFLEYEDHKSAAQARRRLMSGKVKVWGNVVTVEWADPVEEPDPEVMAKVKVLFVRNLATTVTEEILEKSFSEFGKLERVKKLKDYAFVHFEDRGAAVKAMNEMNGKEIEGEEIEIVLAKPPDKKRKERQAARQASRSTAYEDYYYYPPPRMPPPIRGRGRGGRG
The conditions noted are these: 20 nM protein, 1.5 uM RNA pool; 20 mM HEPES pH 7.8, 70 mM KCl, 10 mM NaCl, 10% glycerol, 2 mM DTT, 0.1 ug/uL BSA; 30 min, 4 C (protocol of this paper; not …); cited from earlier work.

Data set [4] deals with T5, rnp-2 (Caenorhabditis elegans) (UniProt Q21322).
T5 sequence: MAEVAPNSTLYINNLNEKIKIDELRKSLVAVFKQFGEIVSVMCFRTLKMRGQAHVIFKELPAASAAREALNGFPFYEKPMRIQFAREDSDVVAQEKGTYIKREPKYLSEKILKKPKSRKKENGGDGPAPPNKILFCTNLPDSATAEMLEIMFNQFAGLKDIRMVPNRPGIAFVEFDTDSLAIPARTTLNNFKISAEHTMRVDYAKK
The conditions noted are these: 20 nM protein, 1.5 uM RNA pool; 20 mM HEPES pH 7.8, 70 mM KCl, 10 mM NaCl, 10% glycerol, 2 mM DTT, 0.1 ug/uL BSA; 30 min, 4 C.

For data set [5], the target named is T6, syncrip (Xenopus tropicalis) (UniProt A0A8J0QJ86).
T6 sequence: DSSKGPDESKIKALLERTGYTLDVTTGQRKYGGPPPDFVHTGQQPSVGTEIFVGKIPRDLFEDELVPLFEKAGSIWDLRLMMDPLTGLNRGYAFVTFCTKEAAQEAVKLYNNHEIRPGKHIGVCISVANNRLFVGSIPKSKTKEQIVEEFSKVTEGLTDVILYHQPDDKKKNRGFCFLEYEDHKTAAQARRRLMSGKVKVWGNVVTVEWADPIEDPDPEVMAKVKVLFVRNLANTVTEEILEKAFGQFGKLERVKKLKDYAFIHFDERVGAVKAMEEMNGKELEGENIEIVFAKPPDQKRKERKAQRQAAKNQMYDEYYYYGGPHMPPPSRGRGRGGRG
The conditions noted are these: 20 nM protein, 1.5 uM RNA pool; 20 mM HEPES pH 7.8, 70 mM KCl, 10 mM NaCl, 10% glycerol, 2 mM DTT, 0.1 ug/uL BSA; 30 min, 4 C (protocol of this paper; not …); cited from earlier work.

The target of another data set is T7, ANKHD1 (Homo sapiens) (UniProt Q8IWZ3).
T7 sequence: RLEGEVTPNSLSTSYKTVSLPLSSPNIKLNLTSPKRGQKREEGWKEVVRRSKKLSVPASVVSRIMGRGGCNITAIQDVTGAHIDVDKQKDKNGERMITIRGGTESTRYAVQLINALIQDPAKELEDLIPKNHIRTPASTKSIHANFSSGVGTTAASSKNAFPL
The conditions noted are these: 20 nM protein, 1.5 uM RNA pool; 20 mM HEPES pH 7.8, 70 mM KCl, 10 mM NaCl, 10% glycerol, 2 mM DTT, 0.1 ug/uL BSA; 30 min, 4 C (protocol of this paper; not …); cited from earlier work.

Data set [6] concerns the target T8, csx1 (Schizosaccharomyces pombe) (UniProt O13759).
T8 sequence: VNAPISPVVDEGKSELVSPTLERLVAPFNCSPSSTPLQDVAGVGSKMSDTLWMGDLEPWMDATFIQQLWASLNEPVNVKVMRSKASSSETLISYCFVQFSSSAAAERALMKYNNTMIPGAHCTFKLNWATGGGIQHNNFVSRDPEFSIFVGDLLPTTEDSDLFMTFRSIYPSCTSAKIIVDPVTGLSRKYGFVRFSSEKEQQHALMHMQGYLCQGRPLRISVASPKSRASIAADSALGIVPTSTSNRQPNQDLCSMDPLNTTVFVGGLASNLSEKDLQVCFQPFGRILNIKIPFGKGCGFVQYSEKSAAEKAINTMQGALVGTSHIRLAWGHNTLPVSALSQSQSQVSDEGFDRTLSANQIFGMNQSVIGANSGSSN
Particulars: 20 nM protein, 1.5 uM RNA pool; 20 mM HEPES pH 7.8, 70 mM KCl, 10 mM NaCl, 10% glycerol, 2 mM DTT, 0.1 ug/uL BSA; 30 min, 4 C.

As to AGUGUGA [RNAcompete motif RNCMPT00284], the binding signal (z-score (mean of top ten 7-mers)) in data set [1] is 8.11.
In data set [2], GCACUU [RNAcompete motif RNCMPT00323] had a binding signal (z-score (mean of top ten 7-mers)) of 11.2.
UACUNG [RNAcompete motif RNCMPT00324]: the binding signal (z-score (mean of top ten 7-mers)) in data set [3] was 22.8.
For the substance AAAUU [RNAcompete motif RNCMPT00288], the binding signal (z-score (mean of top ten 7-mers)) with HNRNPR (Gallus gallus) is 6.51.
Consider GCACUU [RNAcompete motif RNCMPT00301], for which, in data set [4], the binding signal (z-score (mean of top ten 7-mers)) is 27.
With AAAUU [RNAcompete motif RNCMPT00281], the binding signal (z-score (mean of top ten 7-mers)) in data set [5] is 7.01.
Consider AGACGU [RNAcompete motif RNCMPT00002], for which the binding signal (z-score (mean of top ten 7-mers)) with ANKHD1 (Homo sapiens) was 22.8.
With UGUUUU [RNAcompete motif RNCMPT00325], in data set [6], the binding signal (z-score (mean of top ten 7-mers)) is 9.34.
